Test results reported in paper PMC10770758, “Protocatechuate hydroxylase is a novel group A flavoprotein monooxygenase with a unique substrate recognition mechanism” (The Journal of Biological Chemistry, 2023).

How the values were obtained:
O=C(O)c1ccc(O)c(O)c1 = assay: purified protein; format: biochemical, Xylophilus ampelinus; details: apparent, 0.25 mM NADPH, 20 mM Tris-HCl pH 7.9, 25 °C
O=C(O)c1ccc(O)cc1 = assay: purified protein; format: biochemical, Xylophilus ampelinus; details: apparent, 0.25 mM NADPH, 20 mM Tris-HCl pH 7.9, 25 °C

Substance: XaPobA (Xylophilus ampelinus; W201A)
- Km (O=C(O)c1ccc(O)c(O)c1): 6.5 ± 2.7 × 10^−1 mM

Substance: XaPobA (Xylophilus ampelinus; W201Y)
- Km (O=C(O)c1ccc(O)cc1): 7.2 ± 2.2 × 10^−2 mM
- Km (O=C(O)c1ccc(O)c(O)c1): 5.0 ± 1.1 × 10^−1 mM

Substance: XaPobA (Xylophilus ampelinus; C347T)
- Km (O=C(O)c1ccc(O)cc1): 9.1 ± 3.4 × 10^−1 mM
- Km (O=C(O)c1ccc(O)c(O)c1): 3.2 ± 1.0 × 10^−1 mM

Substance: XaPobA (Xylophilus ampelinus; M210A)
- Km (O=C(O)c1ccc(O)c(O)c1): 9.6 ± 0.3 × 10^−1 mM
